Data on ten molecules can be found in patent publication US10759835B2, “Monomeric streptavidin mutants, methods of using the same and processes of manufacturing proteins” (The Research Foundation for The State University of New York, priority 2016, dated 2020).

Substitutions are numbered along the chain they refer to. Names and notes keep the numbering of the source. Values joined by “and” are separate entries in the source; they are usually repeats but may differ in a detail not shown here. Identical values can stand only once.

Experiment [1] is described as follows: Fluorescence polarization spectroscopy, biotin dissociation rate (koff). In kind it is binding. The conditions noted are these: for t1/2: dissociation half-life t1/2=0.693/koff, biotin-fluorescein; for t1/2 / Koff(×10^−3 min^−1): 37° C.; for Koff(×10^−3 min^−1): dissociation of biotin-fluorescein, excess free biotin 100 μM. The procedure: FIG. 4. In vitro characterization of purified mSA mutants. a) Stability of mSA-RF and mSA-RWT in PBS was measured by circular dichroism spectroscopy with or without biotin. b) Fluorescence polarization spectroscopy was used to measure the dissociation rate of biotin-fluorescein. The dissociation rate, koff, was computed by fitting normalized fluorescence polarization data, or bound fraction f, to an exponentially decaying function, i.e. ƒ=e^−k^off^*t The measurements were taken at 37° C. c) The equilibrium affinity of binding Kd between mSA-RF and biotin-fluorescein was measured by FP. d) mSA-S25H and mSA-RF were analyzed by size exclusion chromatography to estimate their molecular weights in solution. Each mutant eluted with a retention time that was consistent with monomeric streptavidin. The molecular weight standards (arrows) correspond to 66.0, 29.0, 12.4 and 6.5 kDa from left to right.
The binding of biotinylated fluorescein (bf, AnaSpec) was measured using a microplate reader (SpectraMax® i3 Microplate reader from Molecular Devices) in flat bottom 96 well plates (Sterilin Ltd). To measure Kd, 100 nM bf was first mixed with titrating amounts of mSA in PBS containing 0.1 mg/ml bovine serum albumin (BSA). After overnight incubation at room temperature, the fluorescence polarization values were measured and fit to the quadratic binding equation (Hsu and Park, 2010, J Mol Graph Model, 29, 295-308). To measure the off rate (koff), 10 nM bf was first mixed with 50 nM mSA and incubated for 2 hr to form a biotin-mSA complex. To observe dissociation of bf, excess free biotin was added to a final concentration of 100 μM and recording of fluorescence was started immediately. The intensity of polarized fluorescence was measured at various time points and normalized with respect to the value at t=0 min. The intensities were fit to an exponentially decaying function e^−k^off^*t to compute koff. The dissociation half-life t1/2=0.693/koff.
We measured the biotin dissociation rate of various mSA mutants by fluorescence polarization spectroscopy. Table 2 presents the biotin dissociation rate (koff) of various mutants measured by fluorescence polarization spectroscopy. The S25R mutation lowered koff by nearly 21 fold compared to the original mSA and 3.3 fold compared to the S25H mutant (Table 2, FIG. 4b).
Background: In fluorescence polarisation assays a small probe gives low polarisation when free and higher when bound to something large.

For experiment [2] the following is noted: currently available mSA, Lim et al.; cited from earlier work.
The test system of experiment [3] is HEK293 cells displaying biotinylated AP-CFP. Put plainly: Fluorescent labeling of cell surface biotinylated receptor, confocal microscopy. In kind it is cell-based. The text has this:
FIG. 5. Fluorescent labeling of HEK293 cells displaying biotinylated receptor. a) HEK293 cells displaying biotinylated AP-CFP were labeled with Alexa488-conjugated mSA-RWT and imaged by fluorescence microscopy. Fluorescence was filtered for (i) CFP and (ii) Alexa488 and the same field of vision was imaged multiple times at regular intervals to measure the stability of labeling. iii. DIC. mSA-RWT binds only CFP positive cells, indicating high specificity of interaction. b-c) HEK293 displaying unrelated protein fused to CFP b) or untransfected HEK293 c) were treated with purified BirA and then labeled with fluorescent mSA-RWT as in part (a) (i)-(iii) the same as before. d) The captured fluorescence images of mSA-RWT—Alexa488 labeled cells (in jpg format) were loaded into MatLab and the amount of CFP and Alexa488 fluorescence was quantified by summing over pixel values. The fluorescence intensity was normalized with respect to the value at t=0. e) Cells labeled with mSA-RF—EGFP were similarly imaged and analyzed to determine the time dependent loss of mSA labeling.
Adherent HEK293 cells were seeded in a 24 well plate (Becton Dickinson) and grown in DMEM supplemented with 10% FBS and antibiotic/antimycotic (Invitrogen). At 50% confluency, the cells were transfected with a plasmid containing pDisplay-AP-CFP-TM. After 2 days the wells were supplemented with 100 nM purified BirA, 5 mM ATP, and 0.3 mM biotin and the biotinylation reaction was carried out overnight. The following morning, the cells were detached from the wells using EDTA Solution (Versene from Life Technologies), washed with PBS containing 0.1% w/v BSA (PBSF), and fixed in 4% paraformaldehyde solution. Prior to microscopy, cells were labeled with 1 μM mSA-RWT—Alexa488 or 1 μM mSA-RF—EGFP in PBSF for 30 minutes. Excess protein was washed away and cells were switched to PBSF with 0.9 mM biotin. Each sample was mounted on slides and imaged using confocal microscopy. The same field of view was imaged every 10 min for 60 min to quantify fluorescence loss as a function of time. The captured images were analyzed with microscope software (ZEN from Zeiss, and MatLab® from MathWorks).
We tested the use of mSA-RWT or mSA-RF in cell imaging, in which biotinylated proteins on the cell surface were labeled with Alexa488 conjugated mSA-RWT or mSA-RF fused to EGFP, and imaged by fluorescence confocal microscopy. Cell imaging is an important test of whether engineered mutants can specifically interact with biotinylated ligands in a heterogeneous environment, in which other potentially competing interactions can interfere with desired detection. […]
To evaluate the stability of labeling, we imaged the labeled cells repeatedly over 1 hr and quantified the fluorescence intensity of Alexa488 or GFP at regular intervals. […]

B1: mSA-R: monomeric streptavidin mutant SEQ ID NO: 2, S25R (S13R in SEQ ID NO: 1 numbering) (protein)
chain: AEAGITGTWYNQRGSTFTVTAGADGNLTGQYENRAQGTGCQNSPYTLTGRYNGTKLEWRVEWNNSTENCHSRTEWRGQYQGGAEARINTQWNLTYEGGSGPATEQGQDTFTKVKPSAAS
modifications: Modified streptavidin
Take B1: in experiment [1], the “fold lowering of koff compared to the S25H mutant” value amounted to 3.3 fold; the “fold lowering of koff compared to the original mSA” value is ~21 fold and 25 fold; the “t1/2” value was determined as 4.62 ± 0.2 h; the “Koff(×10^−3 min^−1)” value is given as 2.51 ± 0.11 ×10^−3 min^−1. Besides, the “t1/2” value in experiment [1] (listed as S25R) was found to be 4.62 h.

B2: mSA: engineered monomeric streptavidin, reference sequence SEQ ID NO: 1 (Lim et al. 2013) (protein)
chain: B1 chain with R13S
modifications: monomeric streptavidin
In the case of B2, in experiment [1], the “t1/2” value was 0.183 h and the “Koff(×10^−3 min^−1)” value was 63 ×10^−3 min^−1. In experiment [2], the biotin dissociation koff is 0.00105 s⁻¹ and the “dissociation t1/2” value was 0.183 h.

B3: mSA-ERWT: monomeric streptavidin mutant SEQ ID NO: 10, Q24E, S25R, T48W, E124T (protein)
chain: B1 chain with Q12E, T38W, E104T
modifications: Modified streptavidin
Take B3: in experiment [1], the “t1/2” value is 1.19 ± 0.0283 h and the “Koff(×10^−3 min^−1)” value is 9.73 ± 0.24 ×10^−3 min^−1.

B4: mSA-DRWT: monomeric streptavidin mutant SEQ ID NO: 11, Q24D, S25R, T48W, E124T (protein)
chain: B1 chain with Q12D, T38W, E104T
modifications: Modified streptavidin
B4: in experiment [1], the “t1/2” value was 0.717 ± 0.0233 h and the “Koff(×10^−3 min^−1)” value is recorded as 16.1 ± 0.52 ×10^−3 min^−1.

B5: mSA-ER: monomeric streptavidin mutant SEQ ID NO: 6, Q24E, S25R (protein)
chain: B1 chain with Q12E
modifications: Modified streptavidin
As to B5, in experiment [1], the “t1/2” value was found to be 1.14 ± 0.102 h and the “Koff(×10^−3 min^−1)” value was 10.2 ± 0.91 ×10^−3 min^−1.

B6: mSA-RWT: monomeric streptavidin mutant SEQ ID NO: 4, S25R, T48W, E124T (protein)
chain: B1 chain with T38W, E104T
modifications: Modified streptavidin
As to B6, in experiment [1], the “t1/2” value came to 5.48 ± 0.35 h and the “Koff(×10^−3 min^−1)” value is listed as 2.11 ± 0.13 ×10^−3 min^−1. In experiment [1] (result in words), the “off rate / dissociation half-life compared with another mutant” value is recorded as “longer than mSA-S25R”. For the same molecule, the “Alexa488/GFP fluorescence of labeled cells over time” value in experiment [3] (after 1 hr, 900 μM biotin in the labeling solution) is reported as “remained high”. For the same molecule, in experiment [3] (fixed HEK293 cells, 1 μM for 30 minutes), the “labeling of cells displaying biotinylated AP-CFP” value is “Only CFP positive cells were labeled selectively”.

B7: mSA-ERF: monomeric streptavidin mutant SEQ ID NO: 8, Q24E, S25R, T48F (protein)
chain: B1 chain with Q12E, T38F
modifications: Modified streptavidin
In the case of B7, in experiment [1], the “t1/2” value turned out to be 1.26 ± 0.03 h and the “Koff(×10^−3 min^−1)” value is on record as 9.15 ± 0.21 ×10^−3 min^−1.

B8: mSA-H: monomeric streptavidin mutant SEQ ID NO: 5, S25H (protein)
chain: B1 chain with R13H
modifications: Modified streptavidin
Turning to B8, in experiment [1], the “t1/2” value was determined as 1.41 ± 0.0517 h and the “Koff(×10^−3 min^−1)” value is 8.19 ± 0.31 ×10^−3 min^−1.

B9: mSA-DRF: monomeric streptavidin mutant SEQ ID NO: 9, Q24D, S25R, T48F (protein)
chain: B1 chain with Q12D, T38F
modifications: Modified streptavidin
Regarding B9, in experiment [1], the “t1/2” value came to 0.778 ± 0.0217 h and the “Koff(×10^−3 min^−1)” value is listed as 14.9 ± 0.41 ×10^−3 min^−1.

B10: mSA-DR: monomeric streptavidin mutant SEQ ID NO: 7, Q24D, S25R (protein)
chain: B1 chain with Q12D
modifications: modified streptavidin
B10: in experiment [1], the “t1/2” value turned out to be 0.568 ± 0.02 h and the “Koff(×10^−3 min^−1)” value is 20.3 ± 0.69 ×10^−3 min^−1.
